According to the nanobody polyreactivity screen of Harvey et al. (2022):

Assay: yeast display, Sf9 membrane polyspecificity reagent, FACS + sequencing; frameworks hold sequencing errors
How it was run: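 Galactose induction of a Saccharomyces cerevisiae BJ5465 synthetic nanobody display library ran 36–48 hours. The cells were then stained for 1 hour at 4 °C with 10% biotinylated, detergent-solubilized Sf9 membrane reagent, pulled down on streptavidin microbeads and FACS-sorted into low and high (top ~1%) gates on expression and reagent-binding fluorescence. Labels for polyreactivity follow the gate of origin.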

Sequence	polyreactivity (PSR sort gate)
QVQLVESGGGLVEAGGSLRLSCAASGRIFRKYTMGWYRQAPGKERELVAAISRNGGDTYYADSVKGRFTISRDNAKNTVYLLMNSLKPEDTAVYYCNARTPTDSTHFDYWGQGTQVSVSS	low polyreactivity
QVQLVESGGGLVEAGGSLRLSCAASGRIFWGNAMGWYRPAPGKERELVAAITRGGSTNYADSVKGRFTISRDNAKNTVYLQMKSLKPEDTAVYYCAARTRSRGNSWTYDYWGQGTQVTVSS	high polyreactivity
QVQLVESGGGLVEAGGSLRLSCAASGSIFDDYAMGWYRQAPGEERELVAAITWNGGSTYADSVKGRFTISRDNAKNTVYFQMNSLKPEDTAVYYSAADYFVYWYYGYGYWGQGTQVTVSS	low polyreactivity
QVQLVESGGGLVEAGGSLRLSCAASGSTFRYYAMGWYRQAPGKERELFAAITWSGGSTNYADSVKGRFTISRDNAKNTFYLQMNSLKPEDTAVYYCNARYLYRHSRYARYDSWGQGTQVTVSS	high polyreactivity
QVQLVESGGGLVEAGGSLRLSCAATGRTIRAYAMGWYRPEPGKERELVASISSGGSTKYADSVKGRFTISRDNAKNTVYLQMNSLKPEDTAVYFCAADRLLYGVDYWGQGTEVTVSS	low polyreactivity
QVQLVESGGGLVEAGGSLRLSCAAYGFIFSHNTMGCYRQAPGKERELVAGISWSGGNTYYSDSVKGRFTISRDNAKNTGYLQMNRLKPEDTAVYSFNVRFVTGYRYRYGDDYWGQGTQVTVSS	low polyreactivity
QVQLVESGGGLVEEGGSLRLSCAASGSIFYRNDMGWYRQAPGKERELVAAISWSGGRTYYADSVKGRFTISRDNAKNTVYLQMNSLKPEDTAVYYCAAFRHRQSSDNGYDYWGQGTQVTVSS	high polyreactivity
QVQLVESGGGLVHAGCSLRLSCAAYGRNFYRYAMGWYRQAPGKERALVAAISGSVGSTYADTEKGRFTSSRDNAKNTVYLQMNSLKPEDTAVYYCARESYRRYGAYDYWGQGTQVTESS	low polyreactivity
QVQLVESGGGLVHAGGILRLSCAASGRTFRYYTMGWYRQEPGKERELVAAISSGGGNTYYADSVKGRFTISRDNAKNTVYLQMNSLKPEDTAVYYCAVPWYTRESGAYDYWGQGSQVTVSS	high polyreactivity
QVQLVESGGGLVHAGGRLRLSCAASGRTFGFYTMGWYRQPPGKERELVAGISRGGSTTYADSVKGRFTISRDNAKNTVYLQMNSLKPEDTAVYYCNADRSHYWLPYGVRFDYWGQGSQVTVSS	low polyreactivity
QVQLVESGGGLVHAGGRLRLSCAASGRTFGPYVMGWYRQSPGKERELVASISSADSTYYADSVKVRFTFSRDNAKNTFYLQMNSLKPEDTAVYYCAAEWYDYLYRMDYWGQGTQVTVSS	low polyreactivity
QVQLVESGGGLVHAGGRLRLSCAASGSTFSPYAMGWYRQPPGKERELVAAITRSGGRTYYADSVKGRFTISRDNAKNTVYLQMNSLKPEDTAVYYCAARNYKPYGYYRIYDSWGQGTQVTVSS	high polyreactivity
QVQLVESGGGLVHAGGSIRLSCAASGRIFDSNAMGRYRQAPGKEREVVAAITYSGGGTFYADSVKGRFTSSRDNAKNTVYLQMNCLKPEDTAVYYCNKLPHYFGPVYWFKGDDGYWGQGTQVTVTS	high polyreactivity
QVQLVESGGGLVHAGGSLLLSCDATGISLVRYSMGWYRQAPGKELELVAAISGSGGSTRYADSVKGRFTISRDNAKNTVYLQMNSMIPEDSAVYYCAARGAGPLDNHYSWGQGKQVTVSS	high polyreactivity
QVQLVESGGGLVHAGGSLRLSCAASAFIFLFYTMGSYRQAPGKERELVAAITSVGNTNYADSVKGRFSISRDNAKNTVFLQINSLKPEDTAVYYCAADTTDPGGAYQLMDYWGQGTQVTLSS	low polyreactivity
QVQLVESGGGLVHAGGSLRLSCAASGFIFDTYLMGRYRQAPGTERELVAAISRTGGRTYYADSVKGRFTISRDNAKYTVYLQMNSLNPEDTAVYYCNRAPHIAPEDYDYWGQGTQVTVSS	high polyreactivity

Sequence	polyreactivity (PSR sort gate)
QVQLVESGGGLVHAGGSLRLSCAASGFTFAQNAMGWYRQATGKEREWVAAITRSGARTYYADSVKGRFTISRDNAKNTVYLLMNSLKPEDTPVYYCNRDASRKYGYWGQGTQVTVSS	high polyreactivity
QVQLVESGGGLVHAGGSLRLSCAASGFTFGNAMGWYRQAPGKERELVAAITVNGGTTNYADSVKGRFTISRDNAKNTVYLQMNSLKPEDTAVYSCNVDTSYGPAGDYWGQGTQVTVSS	low polyreactivity
QVQLVESGGGLVHAGGSLRLSCAASGFTFGTYAMGWYRQAPGKEMELVSAISWKGGSTFYADSVKGRFTISRDNAKNTVYLQMNSLKPEDTAVYYCSKLLRRGGHRVFTYDYWGQGTQVTVSS	high polyreactivity
QVQLVESGGGLVHAGGSLRLSCAASGFTFPGYAMGWYRQAPGKERELVAAISRGGAGTYYADSVKGRFTISRDNAKNTVYLQMHSLKPEDTAFYDCAAATDNPSLFQDMYYWGQGTQLTVSS	high polyreactivity
QVQLVESGGGLVHAGGSLRLSCAASGFTIERYAMGWYRQAAGKERELVAVISTSGGSTYYADSVNWRYTITRDNAKNSVYLQMNSLKPEDTAVYYCAKDGSSRGDYHFGWGYYYWGQGTQVTVSS	low polyreactivity
QVQLVESGGGLVHAGGSLRLSCAASGGIFGYYTMGWYRQAPGKERELVAAITWRGSTYYADSVKGRFTISRDNAKNTVYLQMNSLKPEDTAVYYCAARYYSPYGYWGQGTQVTVSS	high polyreactivity
QVQLVESGGGLVHAGGSLRLSCAASGGNFGKYAMGGYRQAPGKERELVAAITWNGGRTYYADSVKGRFTLSRDNAKNTVYLQMNSLKPEDSAVNYCNARNSHRYVYWGQGTQVTVSS	high polyreactivity
QVQLVESGGGLVHAGGSLRLSCAASGITFVRYMGWYRQAPGKERELVAAISASGGSTYYADSVKGRFTISRDNAKNTVYLQLNCLKPEDTAVYYCRFLRVGSLTMDYWGQGSQVTVSS	high polyreactivity
QVQLVESGGGLVHAGGSLRLSCAASGITFYEYTMGWYRQAPGKERELVADIDFSGDSTYYSDSVKGRFTISRDYAKNTVYLQMNSLKPEDTAVYYCAVEIIYWWYIYEYWGQGSQVTVSS	high polyreactivity
QVQLVESGGGLVHAGGSLRLSCAASGLTFYYYDMGWYRQAPGKERELVAAITRRGGSTYYADSVKGRFTISRDNAKNTVYLQMNSLKPEDTAVYYCNALSRTVSHEADDYWGQGTHVTVSS	high polyreactivity
QVQLVESGGGLVHAGGSLRLSCAASGNTYLYYGLGWYRQAPVKEREMVAAITQSGGTTYYADSVKGRFTISRDNAKNTVYLQMNSLTPEDTAVYYCAATRYYYYWYVYDDRGDYWGQGTQVTVSS	low polyreactivity
QVQLVESGGGLVHAGGSLRLSCAASGRIFERYAMGWYRQAPGKERELVAAISVSGSGTYYADSVKGRFTISRDNAKNTVYLQMNSLKPEDTAVYYCAADASLLGLFQGYDYWGQGTQVTVSS	low polyreactivity
QVQLVESGGGLVHAGGSLRLSCAASGRIFFDYTMGWYRQAPGKERELVAAIRTRGDSTYYADSVKGRFTISRDNAKNTFYLQMNSLKPEDTAVYYCAAAVYVRGRRESWGQGTQVTVSS	high polyreactivity
QVQLVESGGGLVHAGGSLRLSCAASGRIFHFNAMGWYRPAPGIERELVATITKRGGRTYYADSVKGRFTISRDNAKNTVYLQMNSLKPEDTAVYYCNADQSRYSAVSGYDYWGQGTQVTVSS	high polyreactivity
QVQLVESGGGLVHAGGSLRLSCAASGRIFRWYAMGWYRQAPGKERELVAAISSRGGSTYYADSVKGRFTISRDNAKNTVYLQMNSLKPEDTAVYYCAADTSGWQPRYDYWGQGTQVTVSS	high polyreactivity
QVQLVESGGGLVHAGGSLRLSCAASGRIFTYNAMGWYRQAPGKERELVAAISTGGSTNYADSVKGRFTISRDNAKNTVYLQMNSLKPEDTAVYYCARRWWPTYDYWGQGTQVTVSS	high polyreactivity
